Measurements: patent US20200087405A1 (UNIVERSITY OF SASKATCHEWAN, published 2020)

B1: Fab 8709 (Fab H) (Fab)
heavy: EVQLVESGGGLVQPGGSLRLSCAASGFNLYSSSMHWVRQAPGKGLEWVASIYPYSGYTYYADSVKGRFTISADTSKNTAYLQMNSLRAEDTAVYYCARYPFGVSAYYAMDYWGQGTLVTVSSASTKGPSVFPLAPSSKSTSGGTAALGCLVKDYFPEPVTVSWNSGALTSGVHTFPAVLQSSGLYSLSSVVTVPSSSLGTQTYICNVNHKPSNTKVDKKVEPKSCDKTHT
light: DIQMTQSPSSLSASVGDRVTITCRASQSVSSAVAWYQQKPGKAPKLLIYSASSLYSGVPSRFSGSRSGTDFTLTISSLQPEDFATYYCQQSYWLITFGQGTKVEIKRTVAAPSVFIFPPSDSQLKSGTASVVCLLNNFYPREAKVQWKVDNALQSGNSQESVTEQDSKDSTYSLSSTLTLSKADYEKHKVYACEVTHQGLSSPVTKSFNRGECGGSDYKDDDDK
notes: From library F. Purified Fab in most assays
B2: Recombinant EGF ligand (ligand, UniProt P01133 971-1023, looked up)
chain: NSDSECPLSHDGYCLHDGVCMYIEALDKYACNCVVGYIGERCQYRDLKWWELR
modifications: biotinylated with the N-hydroxysuccinimide ester of biotin in the ligand binding ELISA
notes: also called biotinylated EGF
B3: Fab 8708 (Fab DL06 AM SR02) (Fab)
heavy: EVQLVESGGGLVQPGGSLRLSCAASGFNISSSSIHWVRQAPGKGLEWVAYISSYYSSTYYADSVKGRFTISADTSKNTAYLQMNSLRAEDTAVYYCARTYCPPLMRYNPTTYQMDVNPEAQYSFGATCGWAMDYWGQGTLVTVSSASTKGPSVFPLAPSSKSTSGGTAALGCLVKDYFPEPVTVSWNSGALTSGVHTFPAVLQSSGLYSLSSVVTVPSSSLGTQTYICNVNHKPSNTKVDKKVEPKSCDKTHT
light: DIQMTQSPSSLSASVGDRVTITCRASQSVSSAVAWYQQKPGKAPKLLIYSASSLYSGVPSRFSGSRSGTDFTLTISSLQPEDFATYYCQQWSYYPITFGQGTKVEIKRTVAAPSVFIFPPSDSQLKSGTASVVCLLNNFYPREAKVQWKVDNALQSGNSQESVTEQDSKDSTYSLSSTLTLSKADYEKHKVYACEVTHQGLSSPVTKSFNRGECGGSDYKDDDDK
notes: Purified Fab in most assays; also called DL06 SR02; Fab DL06 SR02
B4: Fab DL06 AM Clone 23 (Fab)
heavy: EVQLVESGGGLVQPGGSLRLSCAASGFNISSSSIHWVRQAPGKGLEWVAYISSYYSSTYYADSVKGRFTISADTSKNTAYLQMNSLRAEDTAVYYCARTFCPPIMLFNATSFELDIDAEAKFSFASTCGWAMDYWGQGTLVTVSSASTKGPSVFPLAPSSKSTSGGTAALGCLVKDYFPEPVTVSWNSGALTSGVHTFPAVLQSSGLYSLSSVVTVPSSSLGTQTYICNVNHKPSNTKVDKKVEPKSCDKTHT
light: DIQMTQSPSSLSASVGDRVTITCRASQSVSSAVAWYQQKPGKAPKLLIYSASSLYSGVPSRFSGSRSGTDFTLTISSLQPEDFATYYCQQWSYYPITFGQGTKVEIKRTVAAPSVFIFPPSDSQLKSGTASVVCLLNNFYPREAKVQWKVDNALQSGNSQESVTEQDSKDSTYSLSSTLTLSKADYEKHKVYACEVTHQGLSSPVTKSFNRGECGGSDYKDDDDK
notes: Purified Fab
B5: Fab DL06 AM Clone 24 (Fab)
heavy: EVQLVESGGGLVQPGGSLRLSCAASGFNISSSSIHWVRQAPGKGLEWVAYISSYYSSTYYADSVKGRFTISADTSKNTAYLQMNSLRAEDTAVYYCARTFCPPLMLFNPTTFQLEINAEAKYSFASTCGWAMDYWGQGTLVTVSSASTKGPSVFPLAPSSKSTSGGTAALGCLVKDYFPEPVTVSWNSGALTSGVHTFPAVLQSSGLYSLSSVVTVPSSSLGTQTYICNVNHKPSNTKVDKKVEPKSCDKTHT
light: DIQMTQSPSSLSASVGDRVTITCRASQSVSSAVAWYQQKPGKAPKLLIYSASSLYSGVPSRFSGSRSGTDFTLTISSLQPEDFATYYCQQWSYYPITFGQGTKVEIKRTVAAPSVFIFPPSDSQLKSGTASVVCLLNNFYPREAKVQWKVDNALQSGNSQESVTEQDSKDSTYSLSSTLTLSKADYEKHKVYACEVTHQGLSSPVTKSFNRGECGGSDYKDDDDK
notes: Purified Fab

Key:
[1] = target: T1, EGFR-DM (Y251A/R285S) on HEK293F cells (UniProt P00533 25-1210); experiment: flow cytometry on HEK293F cells transiently expressing EGFR-DM
T1 construct: whole, on cells; not shown: C-terminal GFP of the parent EGFR-GFP construct

[2] = target: T2, EGFR-vIII on HEK293F cells (UniProt P00533 25-1210); experiment: flow cytometry, HEK293F cells transiently expressing EGFR-vIII against cells expressing GFP
T2 construct: whole, on cells

[3] = target: T3, Fc-tagged ECD of ErbB2 (ErbB family member, R&D 1129-ER) (human, UniProt P04626 23-652); experiment: ELISA on immobilized Fc-tagged ErbB ECDs
T3 construct: extracellular domain; not shown: Fc tag of the bought protein

[4] = target: T4, Fc-tagged ECD of ErbB3 (R&D 348-RB) (human, UniProt P21860 20-643); experiment: ELISA on immobilized Fc-tagged ErbB ECDs
T4 construct: extracellular domain; also called ErbB family member; not shown: Fc tag of the bought protein

[5] = target: T5, Fc-tagged ECD of ErbB4 (ErbB family member, R&D 1131-ER) (human, UniProt Q15303 26-651); experiment: ELISA on immobilized Fc-tagged ErbB ECDs
T5 construct: extracellular domain; not shown: Fc tag of the bought protein
T5 sequence (looked up): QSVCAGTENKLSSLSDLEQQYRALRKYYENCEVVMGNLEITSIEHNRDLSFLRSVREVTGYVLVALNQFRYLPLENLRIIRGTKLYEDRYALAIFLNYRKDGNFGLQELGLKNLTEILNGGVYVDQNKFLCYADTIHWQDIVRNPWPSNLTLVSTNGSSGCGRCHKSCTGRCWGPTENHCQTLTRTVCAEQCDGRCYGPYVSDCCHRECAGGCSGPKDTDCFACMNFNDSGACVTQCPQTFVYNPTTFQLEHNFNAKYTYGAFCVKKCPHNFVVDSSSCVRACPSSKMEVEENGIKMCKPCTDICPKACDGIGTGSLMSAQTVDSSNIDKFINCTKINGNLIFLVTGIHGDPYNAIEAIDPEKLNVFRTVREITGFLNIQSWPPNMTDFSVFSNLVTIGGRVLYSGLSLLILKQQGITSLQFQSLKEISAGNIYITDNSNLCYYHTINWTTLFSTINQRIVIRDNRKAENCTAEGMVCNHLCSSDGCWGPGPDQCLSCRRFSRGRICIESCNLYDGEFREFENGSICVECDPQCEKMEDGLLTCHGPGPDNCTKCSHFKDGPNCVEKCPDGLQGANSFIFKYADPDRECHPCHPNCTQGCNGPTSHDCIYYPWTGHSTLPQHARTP

[6] = target: T6, EGFR-D28 on HEK293F cells (UniProt P00533 25-1210); experiment: flow cytometry dose response on transfected HEK293F cells
T6 construct: whole, on cells; also called EGFR-28; not shown: C-terminal GFP of the parent EGFR-GFP construct

[7] = target: T1, EGFR-DM (Y251A/R285S) on HEK293F cells; experiment: as above
[8] = target: T6, EGFR-D28 on HEK293F cells; experiment: flow cytometry on HEK293F cells transiently expressing EGFR-D28
[9] = target: T7, cell-surface EGFR (endogenous on A431, MDA-MB-231 and other cancer cell lines); pBABE-EGFR transfected 293T … (UniProt P00533 25-1210, limits assumed); experiment: flow cytometry dose response on A431 cells after incubation with 10 nM EGF
T7 construct: whole, on cells; Untagged EGFR on cells; also called endogenous cell-surface EGFR; EGFR1

[10] = target: T8, Fc-tagged extracellular domain (ECD) of the recombinant human EGFR (rhEGFR) (human, UniProt P00533 25-645); experiment: biolayer interferometry, Fab immobilized, rhEGFR in solution, 1:1 global fit
T8 construct: extracellular domain; also called rhEGFR-ECD; rhEGFR-ECD-Fc; not shown: Fc tag of the bought protein (R&D 344-ER)

[11] = target: T9, EGFR fragment D3-D4 on HEK293F cells (UniProt P00533 334-645, limits assumed); experiment: flow cytometry heat map of relative binding, 293F cells expressing EGFR EC domains
T9 construct: domain: D3-D4

[12] = target: T10, EGFR fragment D2-D3-D4 on HEK293F cells (UniProt P00533 190-645, limits assumed); experiment: as above
T10 construct: domain: D2-D3-D4

[13] = target: T8, Fc-tagged extracellular domain (ECD) of …; experiment: biolayer interferometry, Fab immobilized, rhEGFR-ECD-Fc in solution, 1:1 model
[14] = target: T11, full-length EGFR with a C-terminal GFP fusion (EGFR-GFP) on HEK293F cells (UniProt P00533 25-1210); experiment: flow cytometry on HEK293F cells transiently expressing EGFR
T11 construct: whole, on cells; also called EGFR (HEK293F transfected); not shown: C-terminal GFP fusion

[15] = target: T11, full-length EGFR with a C-terminal GFP …; experiment: flow cytometry dose response on EGFR-293F cells
[16] = target: T7, cell-surface EGFR (endogenous on A431, …); experiment: flow cytometry dose response on A431 cells, without EGF
[17] = target: T8, Fc-tagged extracellular domain (ECD) of …; experiment: ELISA: biotinylated EGF on immobilized EGFR, with or without pre-incubation with unlabeled EGF
[18] = target: T8, Fc-tagged extracellular domain (ECD) of …; experiment: competitive phage ELISA with soluble rhEGFR as competitor, phage-displayed Fab; affinity-matured clone Fab 8708
[19] = target: T8, Fc-tagged extracellular domain (ECD) of …; experiment: competitive phage ELISA with soluble rhEGFR as competitor, phage-displayed Fab
[20] = target: T8, Fc-tagged extracellular domain (ECD) of …; experiment: multi-point competitive ELISA: soluble EGFR competes with immobilized EGFR for Clone 23
[21] = target: T8, Fc-tagged extracellular domain (ECD) of …; experiment: multi-point competitive ELISA: soluble EGFR competes with immobilized EGFR for Clone 24

Binder	EC50 [1] [nM]	binding result [2]	binding result [3]	binding result [4]	binding result [5]	fold change of EC50 against EGFR [6] [fold]	fold change of EC50 against EGFR [7] [fold]	EC50 [8] [nM]	Kd [10] [nM]	koff [10] [s⁻¹]	kon [10] [M⁻¹ s⁻¹]	binding result [11]	binding result [12]	EC50 [14] [nM]	EC50 (read off the curve) [15] [nM]	EC50 (read off the curve) [16] [nM]	further results
B1	1.4	no binding (tested: 200 nM)	no binding	no binding	no binding	< 3	< 3	1.4	1.4	0.00017	130000	no binding	no binding	0.6	~0.6	~0.6	EC50 (read off the curve) [9]: ~3 nM; fold faster off-rate than Fab 8708 [13]: 3 fold; fold faster on-rate than Fab 8708 [13]: 18 fold
B2	–	–	–	–	–	–	–	–	–	–	–	–	–	–	–	–	binding result [17]: binds
B3	23	no binding (tested: 200 nM)	no binding	no binding	no binding	< 3	< 3	21	6.8	5.6e-05	7000	no binding	no binding	8.2	~6	~6	IC50 [18]: ~30 nM; fold enhancement in affinity against parent Fab DL06 [19]: 7 fold
B4	–	–	–	–	–	–	–	–	–	–	–	–	–	–	–	–	binding result [20]: binds
B5	–	–	–	–	–	–	–	–	–	–	–	–	–	–	–	–	binding result [21]: binds
